Experiment [1] deals with T1, Claudin18.2 (cp0007, Genscript) (UniProt P56856-2 1-261, limits assumed).
T1 construct: Bought antigen used in BLI; also called Claudin18.2 antigen; the antigen
T1 sequence (looked up): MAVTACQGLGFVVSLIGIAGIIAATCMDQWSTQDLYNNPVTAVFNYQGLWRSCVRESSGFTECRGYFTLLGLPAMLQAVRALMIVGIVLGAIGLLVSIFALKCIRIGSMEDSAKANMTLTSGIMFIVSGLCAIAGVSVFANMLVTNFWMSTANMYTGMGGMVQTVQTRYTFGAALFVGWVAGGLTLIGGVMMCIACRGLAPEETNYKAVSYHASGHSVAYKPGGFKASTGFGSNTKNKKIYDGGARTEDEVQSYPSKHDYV
In words: BLI (Octet), antibody on AHC sensor, Claudin18.2 100 nM.
Method: The antibody and Claudin18.2 (cp0007, Genscript) were diluted to 100 nM, respectively.
Detection was conducted using Fortebio Octet Red96e, and the sensors were arranged according to the positions of the samples. […] After the experiment was completed, KD values were analyzed using ForteBio Octet analysis software.

In experiment [2] the target is T2, human C1q (human, UniProt P02745 23-245; P02746 28-253; P02747 29-245).
T2 construct: Bought C1q (Complement Technology); also called C1q antigen
T2 sequence (P02745 23-245 limits assumed, chain 1 of 3): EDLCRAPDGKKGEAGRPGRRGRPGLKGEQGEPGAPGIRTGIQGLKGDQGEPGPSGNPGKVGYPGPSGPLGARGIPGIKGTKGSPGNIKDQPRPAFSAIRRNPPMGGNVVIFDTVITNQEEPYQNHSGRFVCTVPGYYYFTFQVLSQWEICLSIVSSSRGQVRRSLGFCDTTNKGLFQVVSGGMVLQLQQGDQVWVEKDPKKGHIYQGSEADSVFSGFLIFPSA
T2 sequence (P02746 28-253 limits assumed, chain 2 of 3): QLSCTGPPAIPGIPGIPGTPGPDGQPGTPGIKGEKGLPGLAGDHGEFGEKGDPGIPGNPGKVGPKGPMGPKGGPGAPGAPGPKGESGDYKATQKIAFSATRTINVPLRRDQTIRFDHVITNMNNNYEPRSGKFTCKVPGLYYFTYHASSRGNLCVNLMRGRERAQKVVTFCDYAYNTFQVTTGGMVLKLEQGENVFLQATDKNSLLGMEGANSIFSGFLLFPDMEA
T2 sequence (P02747 29-245 limits assumed, chain 3 of 3): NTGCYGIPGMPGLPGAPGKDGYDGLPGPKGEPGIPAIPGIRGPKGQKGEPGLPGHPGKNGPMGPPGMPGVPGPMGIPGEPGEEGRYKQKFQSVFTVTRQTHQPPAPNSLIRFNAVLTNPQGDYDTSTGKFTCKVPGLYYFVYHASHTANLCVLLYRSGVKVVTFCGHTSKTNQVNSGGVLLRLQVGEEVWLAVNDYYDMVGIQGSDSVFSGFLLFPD
Put plainly: BLI (Octet), biotinylated antibody on SA sensor, C1q 40 nM.
Method: (§1) The antibody was diluted to approximately 100 nM, and C1q (Δ099, Complement Technology) was diluted to 40 nM.
(§2) Detection was conducted using Fortebio Octet Red96e, and the sensors were arranged according to the positions of the samples. […] After the experiment was completed, KD values were analyzed using ForteBio Octet analysis software, the coordinate axis data were derived, and Graphpad Prism 8 software was used for plotting.

Experiment [3] addresses T2, human C1q. In words: BLI (Octet), biotinylated antibody on SA sensor.
Method: as §1, §2
Experiment [4] deals with T3, Human CD64/FCGR1A protein (human, UniProt P12314 16-288, limits assumed).
T3 construct: Bought, his-tagged; also called FcγRI; not shown: his tag
T3 sequence (P12314 16-288 limits assumed): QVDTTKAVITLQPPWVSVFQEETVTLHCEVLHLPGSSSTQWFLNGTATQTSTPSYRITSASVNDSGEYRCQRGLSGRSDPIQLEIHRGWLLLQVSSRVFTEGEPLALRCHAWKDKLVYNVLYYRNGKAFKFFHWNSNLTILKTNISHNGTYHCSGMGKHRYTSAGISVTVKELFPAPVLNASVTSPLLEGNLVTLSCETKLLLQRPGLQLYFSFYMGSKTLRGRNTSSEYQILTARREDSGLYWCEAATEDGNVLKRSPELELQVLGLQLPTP
In words: SPR (Biacore T200), his-tagged CD64 captured on anti-His CM5 chip, antibody as analyte, pH 7.4, 1:1 binding fit.

The target of experiment [5] is T3, Human CD64/FCGR1A protein. In words: SPR (Biacore T200), his-tagged receptor captured, antibody in flow.
From the text: (§3) The specific procedures were as follows: Each of FcγR and FcRn proteins (for information of each Fc receptor, see Table 2 below) containing a histidine tag was captured to the chip surface to which anti-histidine antibodies were coupled, and the binding and dissociation between the proteins on the chip surface and antibodies in the mobile phase were detected to obtain affinity and kinetic constants.
(§4) Affinity assay: Each cycle included capture of the receptor, binding of a certain concentration of the antibody carrying the Fc region mutation of the present application, and regeneration of the chip. […] In each cycle, the antibody mutant solution flowed over the chip surface at a flow rate of 30 μL/min, with the binding time of 60 s and the dissociation time of 60 s. […] The obtained data were analyzed using Biacore T200 analysis software (version number 3.1) and using an analysis 1:1 binding or homeostasis analysis model to obtain the corresponding results.
For experiment [6], the target named is T3, Human CD64/FCGR1A protein. Put plainly: SPR (Biacore T200).
From the text: as §3, §4
Experiment [7] addresses T4, Human FcRn/FCGRT & B2M heterodimeric protein (human, UniProt P55899 24-297; P61769 21-119).
T4 construct: Bought heterodimer with His and Strep II tags
Put plainly: SPR (Biacore T200), FcRn captured, antibody in flow, pH 6.0; pH 6.0.
From the text: as §3, §4

Experiment [8] concerns the target T5, Human FcγRIIIA/CD16A (F176) protein (human, UniProt P08637 17-208).
T5 construct: Bought, his-tagged; not shown: his tag
Put plainly: SPR (Biacore T200).

Experiment [9] deals with T6, Human CD32A/FCGR2A protein (167his) (human, UniProt P12318 34-218, limits assumed).
T6 construct: Bought, his-tagged; also called CD32A (H167); CD32A H167; not shown: his tag
T6 sequence (looked up): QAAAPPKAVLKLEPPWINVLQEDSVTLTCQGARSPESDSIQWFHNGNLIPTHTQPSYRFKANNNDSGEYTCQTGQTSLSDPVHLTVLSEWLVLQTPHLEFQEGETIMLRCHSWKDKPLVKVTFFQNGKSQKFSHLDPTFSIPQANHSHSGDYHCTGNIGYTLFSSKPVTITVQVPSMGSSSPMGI
Put plainly: SPR (Biacore T200).

Experiment [10] concerns the target T7, Human FcγRIIIB/CD16B (NA2) (human, UniProt O75015 17-200, limits assumed).
T7 construct: Bought, his-tagged; not shown: his tag
Put plainly: SPR (Biacore T200).

Experiment [11] deals with T8, Human CD32A/FCGR2A protein (167Arg) (human, UniProt P12318 34-218, limits assumed).
T8 construct: Bought, his-tagged; also called CD32A (R167); CD32A R167; not shown: his tag
T8 sequence (looked up): T6 sequence (looked up) with H134R
In words: SPR (Biacore T200).

Experiment [12] concerns the target T9, Human FcγRIIIA/CD16A (V176) protein (human, UniProt P08637 17-208).
T9 construct: Bought, his-tagged; not shown: his tag
Put plainly: SPR (Biacore T200).

In experiment [13] the target is T10, Human FcγRIIIB/CD16B (NA1) (human, UniProt O75015 17-200, limits assumed).
T10 construct: Bought, his-tagged; not shown: his tag
T10 sequence (O75015 other isoform, or with tags, fused parts or gaps limits assumed): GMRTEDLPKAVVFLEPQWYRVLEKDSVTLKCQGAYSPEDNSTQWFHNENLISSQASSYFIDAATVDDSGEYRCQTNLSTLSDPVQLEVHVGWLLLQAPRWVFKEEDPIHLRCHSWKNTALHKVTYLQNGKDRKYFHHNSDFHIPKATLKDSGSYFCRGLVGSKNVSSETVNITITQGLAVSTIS
Put plainly: SPR (Biacore T200).

For experiment [14], the target named is T11, Human CD32B/FCGR2B protein (human, UniProt P31994 43-217, limits assumed).
T11 construct: Bought, his-tagged; also called FcγRIIb; not shown: his tag
T11 sequence (looked up): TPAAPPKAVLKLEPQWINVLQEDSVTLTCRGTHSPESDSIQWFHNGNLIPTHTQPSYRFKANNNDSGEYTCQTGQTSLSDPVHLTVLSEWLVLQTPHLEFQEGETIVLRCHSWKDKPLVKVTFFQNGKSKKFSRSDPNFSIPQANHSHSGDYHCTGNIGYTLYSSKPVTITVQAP
Put plainly: SPR (Biacore T200).

Numbering of substitutions follows the chain as printed.

T7 sequence (O75015 17-200 N65S limits assumed): as the sequence (O75015 other isoform, or with tags, fused parts or gaps limits assumed) above, with R20S, N49S, D66N, V90I counted along it
T9 sequence (P08637 17-208 F176V limits assumed): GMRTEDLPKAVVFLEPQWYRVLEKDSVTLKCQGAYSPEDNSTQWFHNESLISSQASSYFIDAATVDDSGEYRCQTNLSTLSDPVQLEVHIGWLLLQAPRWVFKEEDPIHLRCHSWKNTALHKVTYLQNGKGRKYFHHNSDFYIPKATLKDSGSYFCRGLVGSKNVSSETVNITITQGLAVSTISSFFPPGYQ
T4 sequence (P55899 24-297 limits assumed, chain 1 of 2): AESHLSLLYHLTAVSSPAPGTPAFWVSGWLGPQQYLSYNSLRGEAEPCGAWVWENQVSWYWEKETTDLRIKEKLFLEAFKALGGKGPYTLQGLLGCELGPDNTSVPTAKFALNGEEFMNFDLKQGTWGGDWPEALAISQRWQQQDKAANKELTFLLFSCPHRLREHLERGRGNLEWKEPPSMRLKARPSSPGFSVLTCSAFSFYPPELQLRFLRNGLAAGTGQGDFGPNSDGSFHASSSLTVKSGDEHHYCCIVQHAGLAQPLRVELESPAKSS
T4 sequence (P61769 21-119 limits assumed, chain 2 of 2): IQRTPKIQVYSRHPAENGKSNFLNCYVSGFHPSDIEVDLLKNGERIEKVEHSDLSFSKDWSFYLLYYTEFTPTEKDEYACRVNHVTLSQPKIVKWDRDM
T5 sequence (P08637 17-208 limits assumed): as the sequence (P08637 17-208 F176V limits assumed) above, with V160F counted along it

B1: Fcmut-02 (antibody, human IgG1, kappa)
heavy: QVQLVQSGAEVKKPGSSVKVSCKASGYSFSSYNIHWVRQAPGQGLEWMGYIAPFQGDSRYNQKFKGRVTITADKSTSTAYMELSSLRSEDTAVYYCARLNRGNSLDYWGQGTLVTVSSASTKGPSVFPLAPSSKSTSGGTAALGCLVKDYFPEPVTVSWNSGALTSGVHTFPAVLQSSGLYSLSSVVTVPSSSLGTQTYICNVNHKPSNTKVDKKVEPKSCDKTHTCPPCPAPELLGGPSVFLFPPKPKDTLMISRTPEVTCVVVDVSHEDPEVKFNWYVDGVEVHNAKTKPREEQYNSTYRVVSVLTVLHQDWLNGKEYKCKVSNKALAPIEKTISKAKGQPREPQVYTLPPSREEMTKNQVSLTCLVKGFYPSDIAVEWESNGQPENNYKTTPPVLDSDGSFFLYSKLTVDKSRWQQGNVFSCSVMHEALHNHYTQKSLSLSPGK
light: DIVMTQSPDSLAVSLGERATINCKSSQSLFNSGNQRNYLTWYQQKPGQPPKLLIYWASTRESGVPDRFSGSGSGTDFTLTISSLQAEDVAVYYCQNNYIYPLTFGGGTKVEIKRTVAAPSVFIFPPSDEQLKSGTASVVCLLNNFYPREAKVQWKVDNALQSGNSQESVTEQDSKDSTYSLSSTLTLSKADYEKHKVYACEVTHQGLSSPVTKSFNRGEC
notes: IgG1-mut of Fcmut-01: deletion of 329 (EU index); also called Fcmut-2
B1: the dissociation constant Kd was 2.73 nM in [1], 9.31 nM in [5] and 447 nM in experiment [7]. Also, the results for the Response (in [1]; with human C1q [2]) were 0.138 nm and 0.0007 nm, respectively. The koff in experiment [1] amounted to 0.0002 s⁻¹; in experiment [4], 0.0136 s⁻¹. Also, the association rate constant (kon) in [1] is 73200 M⁻¹ s⁻¹; in [4], 1.46e+06 M⁻¹ s⁻¹. In addition, the binding result with human C1q [3] is given as “no binding (tested: C1q 40 nM)”; in experiment [8], “no binding (tested: 400 nM)”; in experiment [9], “no binding (tested: 400 nM)”; in [10], “no binding (tested: 400 nM)”; in [11] it was “no binding (tested: 400 nM)”; in [12], “no binding (tested: 400 nM)”. In addition, the binding result in experiment [13] and in [14] was “no binding (tested: 400 nM)” in each case. Also, the “fold reduction of binding against Fcmut-01” value in experiment [6] was found to be 8.7 times.

B2: Fcmut-04 (antibody, human IgG1, kappa)
heavy: QVQLVQSGAEVKKPGSSVKVSCKASGYSFSSYNIHWVRQAPGQGLEWMGYIAPFQGDSRYNQKFKGRVTITADKSTSTAYMELSSLRSEDTAVYYCARLNRGNSLDYWGQGTLVTVSSASTKGPSVFPLAPSSKSTSGGTAALGCLVKDYFPEPVTVSWNSGALTSGVHTFPAVLQSSGLYSLSSVVTVPSSSLGTQTYICNVNHKPSNTKVDKKVEPKSCDKTHTCPPCPAPELLGGPSVFLFPPKPKDTLMISRTPEVTCVVVDVSHEDPEVKFNWYVDGVEVHNAKTKPREEQYNSTYRVVSVLTVLHQDWLNGKEYKCKVSNKALPIEKTISKAKGQPREPQVYTLPPSREEMTKNQVSLTCLVKGFYPSDIAVEWESNGQPENNYKTTPPVLDSDGSFFLYSKLTVDKSRWQQGNVFSCSVMHEALHNHYTQKSLSLSPGK
light: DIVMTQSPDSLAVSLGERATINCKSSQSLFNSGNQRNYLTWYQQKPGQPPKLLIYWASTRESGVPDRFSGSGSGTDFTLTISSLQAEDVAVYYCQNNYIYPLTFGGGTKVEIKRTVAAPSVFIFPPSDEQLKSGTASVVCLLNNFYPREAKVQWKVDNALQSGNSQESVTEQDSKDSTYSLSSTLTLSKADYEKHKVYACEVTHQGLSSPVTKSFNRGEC
notes: IgG1-mut of Fcmut-01: deletion of 329 and 330 (EU index)
With B2, the equilibrium dissociation constant (Kd) stood at 2.83 nM in [1], 15 nM in experiment [5] and 505 nM in experiment [7]. The Response in experiment [1] is 0.146 nm; in the experiment with human C1q [2], -0.0027 nm. The figures for the off-rate (koff) in experiment [1] and in experiment [4] were 0.0002 s⁻¹ and 0.0141 s⁻¹, respectively. In addition, the kon in experiment [1] was determined as 70700 M⁻¹ s⁻¹; in experiment [4] it was 938000 M⁻¹ s⁻¹. The “fold reduction of binding against Fcmut-01” value in experiment [6] is 14 times. The binding result in [8], in [9], in experiment [10], in experiment [11], in experiment [12] and in [13] was “no binding (tested: 400 nM)” each time. For the same molecule, the binding result in experiment [14] is recorded as “no binding (tested: 400 nM)”.

Values taken from patent US20240228579A1 (Innovent, published 2024).
